From patent publication US20200031911A1 (MEDANNEX, published 2020)

T1: human annexin A1 (Anx-A1) (human, UniProt P04083 2-346)
T1 construct: also called full-length human Anx-A1 (ANXA1-002 / ANXA1-003 transcripts)
T1 sequence: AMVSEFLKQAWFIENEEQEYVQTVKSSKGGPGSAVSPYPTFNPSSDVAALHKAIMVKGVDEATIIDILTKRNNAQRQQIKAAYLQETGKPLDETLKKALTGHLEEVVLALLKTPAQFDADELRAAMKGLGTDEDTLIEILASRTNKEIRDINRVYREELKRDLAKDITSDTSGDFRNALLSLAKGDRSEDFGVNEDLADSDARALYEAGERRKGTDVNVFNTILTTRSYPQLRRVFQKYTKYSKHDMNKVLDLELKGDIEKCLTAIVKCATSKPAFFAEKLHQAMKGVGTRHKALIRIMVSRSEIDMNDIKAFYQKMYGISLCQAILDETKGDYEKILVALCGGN


Assays:
[1] = biological target: T1, human annexin A1 (Anx-A1); assay: Biacore SPR, assay 3 of 3; antibody captured via goat anti-mouse IgG, Anx-A1 at 5-80 nM as analyte, 1 mM CaCl2
Description: (§1) The Mdx001 antibody was immobilised on a chip via a goat anti-mouse IgG. Ligand (Anx-A1) was passed over the immobilised antibody in running buffer. Anx-A1 was used at a concentration of 5, 10, 20, 40 or 80 nM. In each experiment, a total of 150 μl Anx-A1-containing running buffer was passed over the antibody, at a flow rate of 30 μl/min.
(§2) Regeneration was performed using a regeneration buffer, 10 mM glycine-HCl, pH 2. To regenerate the chip, 70 μl regeneration buffer was passed over the chip at a rate of 10 μl/min.
(§3) Experiments were performed in triplicate.

[2] = biological target: T1, human annexin A1 (Anx-A1); assay: Biacore SPR, assay 2 of 3; antibody captured via goat anti-mouse IgG, Anx-A1 at 5-80 nM as analyte, 1 mM CaCl2
Description: as §1, §2, §3

[3] = biological target: T1, human annexin A1 (Anx-A1); assay: Biacore SPR, assay 1 of 3; antibody captured via goat anti-mouse IgG, Anx-A1 at 5-80 nM as analyte, 1 mM CaCl2
Description: as §1, §2, §3

[4] = biological target: T1, human annexin A1 (Anx-A1); assay: Biacore SPR, average of three assays; antibody captured, Anx-A1 as analyte
Description: as §1, §2, §3

[5] = biological target: T1, human annexin A1 (Anx-A1); assay: Biacore SPR, assay 1 of 3, method of Example 4; first of three experiments
Description: as §1
(§4) In light of the ELISA results, the LC1(mod 1)HC4 and LC2(mod 1)HC2 antibodies were discarded. […] Binding of LC1(mod 2)HC4 and LC2(mod 2)HC2 to Anx-A1 was quantified by Biacore, using the same method as described in Example 4. As in Example 4, the Biacore experiments were performed in triplicate. […] LC1(mod 2)HC4 was given the name MDX-L1M2H4. […] LC2(mod 2)HC2 was given the name MDX-L2M2H2.

[6] = biological target: T1, human annexin A1 (Anx-A1); assay: Biacore SPR, assay 2 of 3, method of Example 4; second of three experiments
Description: as §1, §4

[7] = biological target: T1, human annexin A1 (Anx-A1); assay: Biacore SPR, assay 3 of 3, method of Example 4; third of three experiments
Description: as §1, §4

[8] = biological target: T1, human annexin A1 (Anx-A1); assay: Biacore SPR, average of three assays, method of Example 4; average of the three experiments
Description: as §1, §4

| Binder | Kd [1] | Kd [2] | Kd [3] | Kd [4] | Kd [5] | Kd [6] | Kd [7] | Kd [8] |
| --- | --- | --- | --- | --- | --- | --- | --- | --- |
| Mdx001 (antibody, mouse IgG2b, kappa, V domains shown, also called murine anti-Anx-A1 antibody) VH: QVQLQQSGPELVRPGTSVKMSCKASGYTFTNYWIGWAKQRPGHGLEWIGDIYPGGDYTNYNEKFKGKATLTADKSSSTAYMQFSSLTSEDSAIYYCARWGLGYYFDYWGQGITLTVSS VL: DAVMTQTPLSLPVSLGDQVSISCRSSQSLENSNGKTYLNWYLQKPGQSPQLLIYGVSNRFSGVLDRFSGSGSGTDFTLKISRVEAEDLGVYFCLQVTHVPYTFGGGTKLEIKR | 6.46 nM | 9.58 nM | 9.43 nM | 8.49 nM | – | – | – | – |
| MDX-L2M2H2 (antibody, human IgG1, kappa, V domains shown, also called LC2(mod 2)HC2; variant 1 of MDX-L2H2) VH: QVQLVQSGPEVKKPGESLKISCKGSGYTFTNYWIGWVRQAPGKGLEWMGDIYPGGDYTNYNEKFKGQVTISADKSISTAYLQWSSLKASDTAIYYCARWGLGYYFDYWGRGTLVTVSS VL: DIVMTQTPLSLSVTPGQPASISCRSSQSLENSNAKTYLNWYLQKPGQSPQLLIYGVSNRFSGVPDRFSGSGSGTDFTLKISRVEAEDVGVYYCLQVTHVPYTFGQGTKVEIKR | – | – | – | – | 4.44 nM | 4.37 nM | 5.17 nM | 4.66 nM |
